The results in this text go back to US20160051694A1.

The target in assay [1] is CD37 (Leukocyte Antigen CD37, Tetraspanin-26) on cells (human) (UniProt P11049). In words: FACS, 5 ug/mL biotinylated control antibody + streptavidin-PE, BDCM cells (AML); background control. On the technique in general: Flow cytometry measures light scatter and fluorescence of single cells or particles in a stream.
For assay [2] the target is unchanged. Kind of assay: FACS, 5 ug/mL biotinylated control antibody + streptavidin-PE, Ramos RR XCL cells (Burkitt's); background control.
Assay [3] has the same target. Kind of assay: FACS, 5 ug/mL biotinylated control antibody + streptavidin-PE, SU-DHL-4 cells (DLBCL); background control.
Assay [4] has the same target. In words: FACS, 5 ug/mL biotinylated control antibody + streptavidin-PE, Hel 92.1 cells (AML); filing calls it high isotype control background binding.
Assay [5] has the same target. In words: FACS, 5 ug/mL biotinylated control antibody + streptavidin-PE, KG-1 cells (AML); filing calls it high isotype control background binding.
Assay [6] has the same target. Kind of assay: FACS, 5 ug/mL biotinylated control antibody + streptavidin-PE, Mino XCL cells (MCL); background control.
Assay [7] has the same target. In words: FACS, 5 ug/mL biotinylated control antibody + streptavidin-PE, EoL-1 cells (AML); background control.
Assay [8] has the same target. In words: FACS, 5 ug/mL biotinylated control antibody + streptavidin-PE, REC-1 cells (MCL); background control.
The target is the same in assay [9]. Kind of assay: FACS, 5 ug/mL biotinylated control antibody + streptavidin-PE, Mino cells (MCL); background control.
Assay [10] shares this target. In words: FACS, 5 ug/mL biotinylated control antibody + streptavidin-PE, JVM-3 cells (CLL); background control.
For assay [11] the target is unchanged. Kind of assay: FACS, 5 ug/mL biotinylated control antibody + streptavidin-PE, MV-4-11 cells (AML); background control.
Assay [12] has the same target. Kind of assay: FACS, 5 ug/mL biotinylated control antibody + streptavidin-PE, Ramos cells (Burkitt's); background control.
For assay [13] the target is unchanged. Kind of assay: FACS, 5 ug/mL biotinylated control antibody + streptavidin-PE, Daudi cells (Burkitt's); background control.
For assay [14] the target is unchanged. In words: FACS, 5 ug/mL biotinylated control antibody + streptavidin-PE, MOLT-4 cells (ALL); background control.
Assay [15] shares this target. In words: FACS, 5 ug/mL biotinylated control antibody + streptavidin-PE, THP-1 cells (AML); background control.
For assay [16] the target is unchanged. Kind of assay: FACS, 5 ug/mL biotinylated control antibody + streptavidin-PE, Kasumi-1 cells (AML); background control.
For assay [17] the target is unchanged. In words: FACS, 5 ug/mL biotinylated control antibody + streptavidin-PE, MOLM-13 cells (AML); background control.
Assay [18] shares this target. In words: FACS, 5 ug/mL biotinylated control antibody + streptavidin-PE, DOHH-2 cells (Follicular); background control.
Assay [19] has the same target. Kind of assay: FACS, 5 ug/mL biotinylated control antibody + streptavidin-PE, Granta-519 cells (MCL); filing calls it high isotype control background binding.
Assay [20] has the same target. In words: FACS, 5 ug/mL biotinylated control antibody + streptavidin-PE, HL-60 cells (AML); background control.
Assay [21] shares this target. Kind of assay: FACS, 5 ug/mL biotinylated control antibody + streptavidin-PE, Raji cells (Burkitt's); background control.
For assay [22] the target is unchanged. Kind of assay: FACS, 5 ug/mL biotinylated control antibody + streptavidin-PE, WSU-DLCL-2 cells (DLBCL); background control.
For assay [23] the target is unchanged. Kind of assay: FACS, 5 ug/mL biotinylated control antibody + streptavidin-PE, RS4-11 cells (ALL); background control.

Sequence of CD37 (Leukocyte Antigen CD37, Tetraspanin-26) on cells (human) (P11049 whole entry): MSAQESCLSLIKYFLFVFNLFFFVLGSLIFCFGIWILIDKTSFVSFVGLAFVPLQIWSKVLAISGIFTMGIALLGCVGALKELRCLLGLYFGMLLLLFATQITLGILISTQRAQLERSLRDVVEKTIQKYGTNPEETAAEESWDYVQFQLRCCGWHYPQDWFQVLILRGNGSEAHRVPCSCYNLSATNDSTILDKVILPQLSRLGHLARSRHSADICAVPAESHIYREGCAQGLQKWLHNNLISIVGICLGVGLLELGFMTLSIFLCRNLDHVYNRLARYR

Turning to “Isotype matched control antibody (biotinylated)”, the Geometric Mean (fluorescence) turned out to be 290 in [1]; 693 in [2]; 1050 in assay [3]; 4220 in [4]; 8190 in assay [5]; 200 in [6]. The Geometric Mean (fluorescence) in assay [7] stood at 189; in assay [8] it was 1010; in [9] it was 1480; in [10], 1930; in assay [11], 247; in assay [12] it was 1150. In addition, the Geometric Mean (fluorescence) in [13] amounted to 2040; in assay [14], 1310; in assay [15], 324; in assay [16], 188; in [17] it was 240; in assay [18] it was 840. The Geometric Mean (fluorescence) stood at 15400 in [19]; 967 in assay [20]; 1760 in assay [21]; 1200 in assay [22]; 155 in assay [23].
